Reference: patent publication US20170015708A1 (BIOKINE THERAPEUTICS, published 2017)

T1: RANTES (human) (human, UniProt P13501 24-91)
T1 sequence (looked up): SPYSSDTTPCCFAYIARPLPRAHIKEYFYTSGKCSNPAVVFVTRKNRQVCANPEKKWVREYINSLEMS

T2: I-TAC (human) (human, UniProt O14625 22-94)
T2 sequence (looked up): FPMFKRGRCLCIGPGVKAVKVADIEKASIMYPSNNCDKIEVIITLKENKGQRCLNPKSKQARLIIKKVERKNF

T3: MIG (human) (human, UniProt Q07325 23-125)
T3 sequence (looked up): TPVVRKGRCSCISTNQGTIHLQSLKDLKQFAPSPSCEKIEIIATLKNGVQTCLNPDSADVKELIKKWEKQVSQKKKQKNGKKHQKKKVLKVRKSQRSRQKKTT

T4: IP-10 (human) (human, UniProt P02778 22-98)
T4 sequence (looked up): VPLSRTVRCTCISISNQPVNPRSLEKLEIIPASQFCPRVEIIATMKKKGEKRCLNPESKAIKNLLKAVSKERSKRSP


Columns and labels:
Assay in all cases: cell-based or functional assay
RANTES (human) = target: T1, RANTES (human)
I-TAC (human) = target: T2, I-TAC (human)
MIG (human) = target: T3, MIG (human)
MCP-1 (human) = MCP-1 (human) (human, UniProt P13500 24-99)
IP-10 (human) = target: T4, IP-10 (human)
Eotaxin (human) = Eotaxin (human) (human, UniProt P51671 24-97)

MCP-1 (human), sequence (P13500 24-99 limits assumed): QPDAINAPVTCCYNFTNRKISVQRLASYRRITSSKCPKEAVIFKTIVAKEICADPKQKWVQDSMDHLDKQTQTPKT

Inhibition of chemokine-dependent T cell adhesion to VCAM-1 (++ = 100% inhibition) (RANTES (human)) | Inhibition of chemokine-dependent T cell adhesion to VCAM-1 (++ = 100% inhibition) (I-TAC (human)) | Inhibition of chemokine-dependent T cell adhesion to VCAM-1 (++ = 100% inhibition) (MIG (human)) | Inhibition of chemokine-dependent T cell adhesion to VCAM-1 (++ = 100% inhibition) (MCP-1 (human)) | Inhibition of chemokine-dependent T cell adhesion to VCAM-1 (++ = 100% inhibition) (IP-10 (human)) | Inhibition of chemokine-dependent T cell adhesion to VCAM-1 (++ = 100% inhibition) (Eotaxin (human)) | Binder
100 % inhibition | 100 % inhibition | 100 % inhibition | 100 % inhibition |  |  | LDYPIPQTVLHH [BKT-P46 peptide]
100 % inhibition | 100 % inhibition |  | 100 % inhibition | 100 % inhibition | 100 % inhibition | SIPSHSIHSAKA [BKT-P2 peptide]
